Results on five sequences are retold here after the supplement of paper PMC5998384.

For data set [1], the system named is HeLa Kyoto. As to the kind of experiment: thermal stability score vs G1/S (z-score of summed log2 fold changes over temperatures); higher = more thermally stable than in G1/S.
The test system of data set [2] is HeLa Kyoto. As to the kind of experiment: solubility in G1/S (NP-40 vs SDS abundance) (log2 ratio); higher = more soluble. As to conditions: cell cycle stage: G1/S.
Data set [3] relates to HeLa Kyoto. As to the kind of experiment: melting temperature (median over replicates), in situ; higher = more thermally stable.
The subject of data set [4] is HeLa Kyoto. As to the kind of experiment: solubility change mitosis vs G1/S (difference of NP-40 vs SDS log2 ratios) (log2 ratio difference); higher = more soluble in mitosis.
Setting [5] is: cell cycle stage: early G1 (4.5 h after nocodazole release).
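For melting temperature (median over replicates), in situ in this document: HeLa Kyoto cells synchronized by double thymidine or nocodazole block, proteins quantified by TMT10plex mass spectrometry, three independent biological replicates.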
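For solubility change mitosis vs G1/S (difference of NP-40 vs SDS log2 ratios) in this document: synchronized HeLa Kyoto cells (double thymidine block for G1/S, nocodazole release for mitosis), protein amounts in NP-40 versus SDS lysates quantified by mass spectrometry, three biological replicates.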
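For solubility in G1/S (NP-40 vs SDS abundance) in this document: HeLa Kyoto cells arrested at G1/S by double thymidine block, proteins quantified by TMT10plex mass spectrometry in mild NP-40 versus SDS extracts, three biological replicates.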
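For thermal stability score vs G1/S (z-score of summed log2 fold changes over temperatures) in this document: synchronized HeLa Kyoto cells, proteins quantified by TMT10plex mass spectrometry, three biological replicates, mitosis taken 0.5 h after nocodazole release, G1/S directly after double thymidine block.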

As to “MKVVNLKQAILQAWKERWSDYQWAINMKKFFPKGATWDILNLADALLEQAMIGPSPNPLILSYLKYAISSQMVSYSSVLTAISKFDDFSRDLCVQALLDIMDMFCDRLSCHGKAEECIGLCRALLSALHWLLRCTAASAERLREGLEAGTPAAGEKQLAMCLQRLEKTLSSTKNRALLHIAKLEEASSWTAIEHSLLKLGEILANLSNPQLRSQAEQCGTLIRSIPTMLSVHAEQMHKTGFPTVHAVILLEGTMNLTGETQSLVEQLTMVKRMQHIPTPLFVLEIWKACFVGLIESPEGTEELKWTAFTFLKIPQVLVKLKKYSHGDKDFTEDVNCAFEFLLKLTPLLDKADQRCNCDCTNFLLQECGKQGLLSEASVNNLMAKRKADREHAPQQKSGENANIQPNIQLILRAEPTVTNILKTMDADHSKSPEGLLGVLGHMLSGKSLDLLLAAAAATGKLKSFARKFINLNEFTTYGSEESTKPASVRALLFDISFLMLCHVAQTYGSEVILSESRTGAEVPFFETWMQTCMPEEGKILNPDHPCFRPDSTKVESLVALLNNSSEMKLVQMKWHEACLSISAAILEILNAWENGVLAFESIQKITDNIKGKVCSLAVCAVAWLVAHVRMLGLDEREKSLQMIRQLAGPLFSENTLQFYNERVVIMNSILERMCADVLQQTATQIKFPSTGVDTMPYWNLLPPKRPIKEVLTDIFAKVLEKGWVDSRSIHIFDTLLHMGGVYWFCNNLIKELLKETRKEHTLRAVELLYSIFCLDMQQVTLVLLGHILPGLLTDSSKWHSLMDPPGTALAKLAVWCALSSYSSHKGQASTRQKKRHREDIEDYISLFPLDDVQPSKLMRLLSSNEDDANILSSPTDRSMSSSLSASQLHTVNMRDPLNRVLANLFLLISSILGSRTAGPHTQFVQWFMEECVDCLEQGGRGSVLQFMPFTTVSELVKVSAMSSPKVVLAITDLSLPLGRQVAAKAIAAL [MED24]”, the thermal stability score in the data set with HeLa Kyoto [1] (setting [5]) amounted to 1.11; with HeLa Kyoto [1] (cell cycle stage: mitosis) it was 1.86. The “solubility in G1/S (log2)” value in the data set with HeLa Kyoto [2] was -0.322. For the same sequence, the melting temperature amounted to 50.8 °C in the data set with HeLa Kyoto [3] (cell cycle stage: G1/S) and 52.2 °C in the data set with HeLa Kyoto [3] (cell cycle stage: mitosis). For the same sequence, in the data set with HeLa Kyoto [4], the “solubility change mitosis (log2)” value amounted to 0.0385.
With “MKYILVTGGVISGIGKGIIASSIGTILKSCGLRVTAIKIDPYINIDAGTFSPYEHGEVFVLNDGGEVDLDLGNYERFLDINLYKDNNITTGKIYQHVINKERRGDYLGKTVQVVPHITDAVQEWVMNQAKVPVDGNKEEPQICVIELGGTIGDIEGMPFVEAFRQFQFKAKRENFCNIHVSLVPQLSATGEQKTKPTQNSVRALRGLGLSPDLIVCRSSTPIEMAVKEKISMFCHVNPEQVICIHDVSSTYRVPVLLEEQSIVKYFKERLHLPIGDSASNLLFKWRNMADRYERLQKICSIALVGKYTKLRDCYASVFKALEHSALAINHKLNLMYIDSIDLEKITETEDPVKFHEAWQKLCKADGILVPGGFGIRGTLGKLQAISWARTKKIPFLGVCLGMQLAVIEFARNCLNLKDADSTEFRPNAPVPLVIDMPEHNPGNLGGTMRLGIRRTVFKTENSILRKLYGDVPFIEERHRHRFEVNPNLIKQFEQNDLSFVGQDVDGDRMEIIELANHPYFVGVQFHPEFSSRPMKPSPPYLGLLLAATGNLNAYLQQGCKLSSSDRYSDASDDSFSEPRIAELEIS [CTPS2]”, the values for the thermal stability score with HeLa Kyoto [1] (setting [5]) and in the data set on HeLa Kyoto [1] (cell cycle stage: mitosis) were -2.15 and -1.98, respectively. The “solubility in G1/S (log2)” value in the data set on HeLa Kyoto [2] was 0.0287. Further, the melting temperature in the data set with HeLa Kyoto [3] (cell cycle stage: G1/S) is 57.1 °C; in the data set on HeLa Kyoto [3] (cell cycle stage: mitosis) it was 57.2 °C. Moreover, the “solubility change mitosis (log2)” value in the data set with HeLa Kyoto [4] was -0.0719.
Consider “MLAFAARTVVKPLGFLKPFSLMKASSRFKAHQDALPRLPVPPLQQSLDHYLKALQPIVSEEEWAHTKQLVDEFQASGGVGERLQKGLERRARKTENWLSEWWLKTAYLQYRQPVVIYSSPGVMLPKQDFVDLQGQLRFAAKLIEGVLDFKVMIDNETLPVEYLGGKPLCMNQYYQILSSCRVPGPKQDTVSNFSKTKKPPTHITVVHNYQFFELDVYHSDGTPLTADQIFVQLEKIWNSSLQTNKEPVGILTSNHRNSWAKAYNTLIKDKVNRDSVRSIQKSIFTVCLDATMPRVSEDVYRSHVAGQMLHGGGSRLNSGNRWFDKTLQFIVAEDGSCGLVYEHAAAEGPPIVTLLDYVIEYTKKPELVRSPLVPLPMPKKLRFNITPEIKSDIEKAKQNLSIMIQDLDITVMVFHHFGKDFPKSEKLSPDAFIQMALQLAYYRIYGQACATYESASLRMFHLGRTDTIRSASMDSLTFVKAMDDSSVTEHQKVELLRKAVQAHRGYTDRAIRGEAFDRHLLGLKLQAIEDLVSMPDIFMDTSYAIAMHFHLSTSQVPAKTDCVMFFGPVVPDGYGVCYNPMEAHINFSLSAYNSCAETNAARLAHYLEKALLDMRALLQSHPRAKL [CRAT]”, for which the thermal stability score worked out at 1.13 in the data set with HeLa Kyoto [1] (setting [5]) and 1.4 in the data set on HeLa Kyoto [1] (cell cycle stage: mitosis). The “solubility in G1/S (log2)” value with HeLa Kyoto [2] is -0.0625. The melting temperature in the data set on HeLa Kyoto [3] (cell cycle stage: G1/S) and with HeLa Kyoto [3] (cell cycle stage: mitosis) was 49.4 °C throughout. Further, in the data set on HeLa Kyoto [4], the “solubility change mitosis (log2)” value was -0.142.
In the case of “MLAVHFDKPGGPENLYVKEVAKPSPGEGEVLLKVAASALNRADLMQRQGQYDPPPGASNILGLEASGHVAELGPGCQGHWKIGDTAMALLPGGGQAQYVTVPEGLLMPIPEGLTLTQAAAIPEAWLTAFQLLHLVGNVQAGDYVLIHAGLSGVGTAAIQLTRMAGAIPLVTAGSQKKLQMAEKLGAAAGFNYKKEDFSEATLKFTKGAGVNLILDCIGGSYWEKNVNCLALDGRWVLYGLMGGGDINGPLFSKLLFKRGSLITSLLRSRDNKYKQMLVNAFTEQILPHFSTEGPQRLLPVLDRIYPVTEIQEAHKYMEANKNIGKIVLELPQ [TP53I3]”, the thermal stability score with HeLa Kyoto [1] (setting [5]) is -2.64; in the data set with HeLa Kyoto [1] (cell cycle stage: mitosis), -1.51. The “solubility in G1/S (log2)” value in the data set with HeLa Kyoto [2] was determined as 0.373. For the same sequence, the melting temperature in the data set on HeLa Kyoto [3] (cell cycle stage: G1/S) was found to be 58.7 °C; with HeLa Kyoto [3] (cell cycle stage: mitosis), 57.3 °C. Besides, the “solubility change mitosis (log2)” value with HeLa Kyoto [4] is -0.199.
Regarding “MLCWGNASFGQLGLGGIDEEIVLEPRKSDFFINKRVRDVGCGLRHTVFVLDDGTVYTCGCNDLGQLGHEKSRKKPEQVVALDAQNIVAVSCGEAHTLALNDKGQVYAWGLDSDGQLGLVGSEECIRVPRNIKSLSDIQIVQVACGYYHSLALSKASEVFCWGQNKYGQLGLGTDCKKQTSPQLLKSLLGIPFMQVAAGGAHSFVLTLSGAIFGWGRNKFGQLGLNDENDRYVPNLLKSLRSQKIVYICCGEDHTAALTKEGGVFTFGAGGYGQLGHNSTSHEINPRKVFELMGSIVTEIACGRQHTSAFVPSSGRIYSFGLGGNGQLGTGSTSNRKSPFTVKGNWYPYNGQCLPDIDSEEYFCVKRIFSGGDQSFSHYSSPQNCGPPDDFRCPNPTKQIWTVNEALIQKWLSYPSGRFPVEIANEIDGTFSSSGCLNGSFLAVSNDDHYRTGTRFSGVDMNAARLLFHKLIQPDHPQISQQVAASLEKNLIPKLTSSLPDVEALRFYLTLPECPLMSDSNNFTTIAIPFGTALVNLEKAPLKVLENWWSVLEPPLFLKIVELFKEVVVHLLKLYKIGIPPSERRIFNSFLHTALKVLEILHRVNEKMGQIIQYDKFYIHEVQELIDIRNDYINWVQQQAYGMDVNHGLTELADIPVTICTYPFVFDAQAKTTLLQTDAVLQMQMAIDQAHRQNVSSLFLPVIESVNPCLILVVRRENIVGDAMEVLRKTKNIDYKKPLKVIFVGEDAVDAGGVRKEFFLLIMRELLDPKYGMFRYYEDSRLIWFSDKTFEDSDLFHLIGVICGLAIYNCTIVDLHFPLALYKKLLKKKPSLDDLKELMPDVGRSMQQLLDYPEDDIEETFCLNFTITVENFGATEVKELVLNGADTAVNKQNRQEFVDAYVDYIFNKSVASLFDAFHAGFHKVCGGKVLLLFQPNELQAMVIGNTNYDWKELEKNTEYKGEYWAEHPTIKIFWEVFHELPLEKKKQFLLFLTGSDRIPILGMKSLKLVIQSTGGGEEYLPVSHTCFNLLDLPKYTEKETLRSKLIQAIDHNEGFSLI [HERC4]”, the results for the thermal stability score in the data set on HeLa Kyoto [1] (setting [5]) and in the data set on HeLa Kyoto [1] (cell cycle stage: mitosis) were -0.179 and -0.361, respectively. In addition, in the data set on HeLa Kyoto [2], the “solubility in G1/S (log2)” value was -0.169. For the same sequence, the melting temperature with HeLa Kyoto [3] (cell cycle stage: G1/S) was 51.4 °C; in the data set on HeLa Kyoto [3] (cell cycle stage: mitosis) it was 51 °C. Besides, the “solubility change mitosis (log2)” value in the data set with HeLa Kyoto [4] is -0.179.
